From US20220348934A1, “NON-RIBOSOMAL PEPTIDES AND SYNTHETASES AND METHODS OF PREPARATION AND USE THEREOF” (VICTORIA LINK LIMITED, priority 2019, published 2022)

B1: A domain from TycC6: Pro-CATTe construct with the Leu specific A domain from the sixth module of TycC substituted (protein)
chain: LAGHLQQIADCVANNPHIRLGEIDMLLPEEKQQILAGFNDTAVSYALDKTLHQLFEEQVDKTPDQAALLFSEQSLTYSELNERANRLARVLRAKGVGPDRLVAIMAERSPEMVIGILGILKAGGAYVPVDPGYPQERIQYLLEDSNAALLLSQAHLLPLLAQVSSELPECLDLNAELDAGLSGSNLPAVNQPTDLAYVIYTSGTTGKPKGVMIPHQGIVNCLQWRRDEYGFGPSDKALQVFSFAFDGFVASLFAPLLGGATCVLPQEAAAKDPVALKKLMAATEVTHYYGVPSLFQAILDCSTTTDFNQLRCVTLGGEKLPVQLVQKTKEKHPAIEINNEYGPTENSVVTTISRSIEAGQAITIGRPLANVQVYIVDEQHHLQPIGVVGELCIGGAGLARGYLNKPELTAEKFVANPFRPGERMYKTGDLVKWRTDGTIEYIGRADEQVKVRGYRIEIGEIESAVLAYQGIDQAVVVARDDDATAGSYLCAYFVAATAVSVSGLRSHLAKELPAYMIPSYFVELDQLPLSANGKVDRKALPKPQ
B2: control Pro A domain substitution strain: Pro-CATTe construct carrying the Pro specific A domain from Pro-CAT (TycB module 1), control substitution (protein)
chain: LAGHLQQIADCVANNSGVELCQIPLLTEAETSQLLAKRTETAADYPAATMHELFSRQAEKTPEQVAVVFADQHLTYRELDEKSNQLARFLRKKGIGTGSLVGTLLDRSLDMIVGILGVLKAGGAFVPIDPELPAERIAYMLTHSRVPLVVTQNHLRAKVTTPTETIDINTAVIGEESRAPIESLNQPHDLFYIIYTSGTTGQPKGVMLEHRNMANLMHFTFDQTNIAFHEKVLQYTTCSFDVCYQEIFSTLLSGGQLYLITNELRRHVEKLFAFIQEKQISILSLPVSFLKFIFNEQDYAQSFPRCVKHIITAGEQLVVTHELQKYLRQHRVFLHNHYGPSETHVVTTCTMDPGQAIPELPPIGKPISNTGIYILDEGLQLKPEGIVGELYISGANVGRGYLHQPELTAEKFLDNPYQPGERMYRTGDLALWLPDGQLEFLGRIDHQVKIRGHRIELGEIESRLLNHPAIKEAVVIDRADETGGKFLCAYVVLQKALSDEEMRAYLAQALPEYMIPSFFVTLERIPVTPNGKTDRRALPKPE
B3: A domain from SrfAC: Pro-CATTe construct with the Leu specific A domain from SrfAC substituted (protein)
chain: LAGHLQQIADCVANNPDQPVSTINLVDDREREFLLTGLNPPAQAHETKPLTYWFKEAVNANPDAPALTYSGQTLSYRELDEEANRIARRLQKHGAGKGSVVALYTKRSLELVIGILGVLKAGAAYLPVDPKLPEDRISYMLADSAAACLLTHQEMKEQAAELPYTGTTLFIDDQTRFEEQASDPATAIDPNDPAYIMYTSGTTGKPKGNITTHANIQGLVKHVDYMAFSDQDTFLSVSNYAFDAFTFDFYASMLNAARLIIADEHTLLDTERLTDLILQENVNVMFATTALFNLLTDAGEDWMKGLRCILFGGERASVPHVRKALRIMGPGKLINCYGPTEGTVFATAHVVHDLPDSISSLPIGKPISNASVYILNEQSQLQPFGAVGELCISGMGVSKGYVNRADLTKEKFIENPFKPGETLYRTGDLARWLPDGTIEYAGRIDDQVKIRGHRIELEEIEKQLQEYPGVKDAVVVADRHESGDASINAYLVNRTQLSAEDVKAHLKKQLPAYMVPQTFTFLDELPLTTNGKVNKRLLPKPD

Test system: BAP1 strain of E. coli
Assay: Dipeptide production by Pro-CATTe A domain substitution constructs co-expressed with Phe-ATE, quantified by HPLC
Type: cell-based
Settings: BAP1 E. coli with Phe-ATE plasmid, grown 24 hours in 10 mL M9, absorbance at 214 nm; for D-Phe-L-Leu produced: upstream site X
Source text: The Phe-ATE/Pro-CAT NRPS system originally used by Belshaw et al comprises the first two modules from the NRPS pathway involved in the biosynthesis of tyrocidine in B. brevis (Belshaw et al. 1999). This two-enzyme system was used to infer stringent acceptor site specificity of the C domain within Pro-CAT that precluded incorporation of L-Leu and L-Phe substrates (Belshaw et al. 1999). An A domain substitution plasmid was made based on pET28a containing the C domain from Pro-CAT, restriction sites to insert alternative A domains, and the T-Te domains from SrfAC (SEQ ID NO: 108). […] The Pro specific A domain from Pro-CAT and five additional A domains were selected to insert into the A domain substitution construct. The five additional domains are represented by SEQ ID NOs: 109, 111, 113, 115, 117, 119, and included the Leu specific A domain from SrfAC, three additional Leu specific A domains and a Phe specific A domain.
The DNA sequences of SEQ ID NOs: 109, 111, 113, 115, 117, 119, were digested using NheI and NotI, then ligated into the compatible SpeI and NotI restriction sites of the vector pET28:ProC-TTe (SEQ ID NO: 108). The resulting Pro-CATTe constructs were transformed into a BAP1 strain of E. coli (Pfeifer et al. 2001) along with a second plasmid containing Phe-ATE (SEQ ID NO: 121). The strains were grown for 24 hours in 10 mL of M9, extracted and analysed using established protocols (Gruenewald et al. 2004). The production of dipeptides was quantified using HPLC and absorbance at 214 nm (FIG. 13), and confirmed using mass spectrometry.

Molecule	D-Phe-L-Leu produced	D-Phe-L-Pro DKP synthesised
B1	3.06 mg/L	
B2		7.8 mg/L
B3	1.81 mg/L	
